Source: paper PMC9475207, “Neural crest cell-placodal neuron interactions are mediated by Cadherin-7 and N-cadherin during early chick trigeminal ganglion assembly” (F1000Research, 2022)

T1: N-cadherin GFP11 (chick, UniProt P10288 165-912)
T1 construct: Synthesized by GenScript; also called N-cad GFP11; N-cad GFP 11; source: CHO cells, transfected, in cells; chick embryo, electroporated in ovo into trigeminal placode cells; not shown: split GFP subunit 11 (GFP11), N-terminal, kept
T1 sequence (looked up): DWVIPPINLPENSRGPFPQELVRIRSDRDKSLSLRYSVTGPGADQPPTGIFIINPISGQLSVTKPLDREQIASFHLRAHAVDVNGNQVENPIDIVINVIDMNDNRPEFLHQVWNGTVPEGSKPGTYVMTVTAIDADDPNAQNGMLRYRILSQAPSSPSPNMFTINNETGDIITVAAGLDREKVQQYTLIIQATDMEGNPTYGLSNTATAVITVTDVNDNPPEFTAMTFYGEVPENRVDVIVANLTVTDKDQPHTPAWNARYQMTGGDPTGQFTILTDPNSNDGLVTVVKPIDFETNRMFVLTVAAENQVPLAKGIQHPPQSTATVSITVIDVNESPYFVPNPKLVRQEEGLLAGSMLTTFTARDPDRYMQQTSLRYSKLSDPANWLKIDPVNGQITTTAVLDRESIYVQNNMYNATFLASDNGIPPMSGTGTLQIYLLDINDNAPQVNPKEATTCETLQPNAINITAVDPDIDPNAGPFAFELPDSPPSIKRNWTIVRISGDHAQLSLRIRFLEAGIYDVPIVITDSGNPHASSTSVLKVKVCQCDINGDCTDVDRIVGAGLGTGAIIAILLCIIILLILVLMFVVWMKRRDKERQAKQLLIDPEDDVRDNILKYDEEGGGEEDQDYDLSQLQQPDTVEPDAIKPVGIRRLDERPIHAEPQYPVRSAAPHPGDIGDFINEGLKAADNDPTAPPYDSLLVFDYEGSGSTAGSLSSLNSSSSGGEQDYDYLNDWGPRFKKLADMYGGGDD

B1: N-cadherin GFP1-10 (natural protein, chick, UniProt P10288 165-912, looked up)
chain: T1 sequence (looked up)
notes: Synthesized by GenScript; also called N-cad GFP1-10; N-cad GFP 1-10; source: CHO cells, transfected, in cells; chick embryo, electroporated in ovo into trigeminal placode cells; not shown: split GFP subunits 1-10 (GFP1-10), N-terminal, kept
B2: Cadherin-7 GFP1-10 (natural protein, chick, UniProt Q90763 48-785, looked up)
chain: SWVWNQFFVLEEYMGSDPLYVGKLHSDVDKGDGSIKYILSGEGASSIFIIDENTGDIHATKRLDREEQAYYTLRAQAHDRLTNKPVEPESEFVIKIQDINDNEPKFLDGPYTAGVPEMSPVGTSVVQVTATDADDPTYGNSARVVYSILQGQPYFSVEPKTGIIKTALPNMDREAKDQYLLVIQAKDMVGQNGGLSGTTSVTVTLTDVNDNPPRFPRRSYQYNVPESLPLASVVARIKAADADVGPNAEMEYKIVDGDGLGVFKISVDKDTQEGIITIQKELDFEAKTSYTLRIEAANMHVDPRFLSLGPFSDMTTVKIIVEDVDEPPVFTSRLYSMVVSEAAKVGTIIGTVAAHDPDASNSPVRYSIDRNTDLERYFNIDANSGVITTAKSLDRETNAVHNITVLAMESQNPAQIGRGYVAITILDINDNAPEFAMEYETTVCENAQPGQIIQKISAIDKDDPPNGHQFYFSLTAEAANNHNFTLQDNKDNTATVLTRRNGFRRQEQSVFYLPIFIVDSGSPSLSSTNTLTIRVCDCDADGIAQTCNAEAYILPAGLSTGALIAILACVLTLLVLVLLIVTMRRRKKEPLIFDEERDIRENIVRYDDEGGGEEDTEAFDMAALRNLNIIRDTKTRRDVTPEIQFLSRPTFKSIPDNVIFREFIWERLKEADVDPCAPPYDSLQTYAFEGNGSVAESLSSLDSISSNSDQNYDYLSDWGPRFKRLADMYGSGPDCLYS
notes: Synthesized by GenScript; also called Cad7 GFP1-10; source: CHO cells, transfected, in cells; chick embryo, electroporated in ovo into premigratory neural crest cells; not shown: split GFP subunits 1-10 (GFP1-10), N-terminal, kept
B3: Cadherin-7 GFP11 (natural protein, chick, UniProt Q90763 48-785, looked up)
chain: B2 chain
notes: Synthesized by GenScript; also called Cad7 GFP11; Cad711; source: CHO cells, transfected, in cells; chick embryo, electroporated in ovo into premigratory neural crest cells; not shown: split GFP subunit 11 (GFP11), N-terminal, kept

Tests used:
Assay in all cases: split reporter (BiFC, NanoBiT); GRASP (split GFP1-10 / GFP11 on the cadherin extracellular domain); both constructs co-transfected into CHO cells (in cis); GFP fluorescence by confocal imaging, GFP+ cells/DAPI+ cells
Settings in all cases: partners not purified
N-cadherin GFP11 = molecular target: T1, N-cadherin GFP11
Cadherin-7 GFP11 = molecular target: B3
N-cadherin GFP1-10 = molecular target: B1

B1
percent GFP-positive cells (GFP+ cells/DAPI+ cells) (N-cadherin GFP11): 13.2%

B2
percent GFP-positive cells (GFP+ cells/DAPI+ cells) (N-cadherin GFP11): 8.9% | percent GFP-positive cells (GFP+ cells/DAPI+ cells) (Cadherin-7 GFP11): 10.5%

B3
percent GFP-positive cells (GFP+ cells/DAPI+ cells) (N-cadherin GFP1-10): 5.76%
